From article PMC9035890 come the findings set out here.

For assay [1], the target named is Recombinant biotinylated protein L (Thermo Fisher 21189) (UniProt Q51918). The assay can be described thus: SPR; Biacore T200, 25°C; biotinylated ligand captured on a CAP chip through the Biotin CAPture reagent; NISTmAb sample as analyte at 200 nmol/L in PBS-P+ pH 7.4, 50 μL/min, 100 s association, 300 s dissociation; response at the end of the association phase divided by that of NISTmAb Bex, mean of three independent experiments.

The target in assay [2] is Recombinant biotinylated protein A (Thermo Fisher 29989) (UniProt P38507). The description is as above.

Take “NISTmAb oxidised in solution, 0.3% H2O2, 30 min (0.3%Nox0.5hr) (antibody)”: the binding relative to NISTmAb Bex in assay [1] came to 99.3%; in assay [2], 94.7%.
In the case of “NISTmAb oxidised in solution, 0.3% H2O2, 32 h (0.3%Nox32hr) (antibody)”, the figures for the binding relative to NISTmAb Bex in assay [1] and in assay [2] were 92.6% and 38.5%, respectively.
